From the supplement of paper PMC9112550, “Optimization of the antimicrobial peptide Bac7 by deep mutational scanning” (BMC Biology, 2022) come the findings set out here.

This data set relates to Escherichia coli TOP10. Nature of the data set: shrunken log2 fold change of peptide-encoding DNA abundance (4.5 h post-induction vs induction); higher = less antimicrobial activity (less host growth inhibition). As to conditions: time post-induction: 4.5 h; library: site-saturation at positions 5, 18, 19, 20.
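Also: peptides expressed intracellularly from a pBAD plasmid library in pooled LB shake-flask culture, induced with 0.3% L-arabinose, DNA abundance read by NGS, three biological replicates, DESeq2 with apeglm shrinkage.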

RRIRKRPPRLPRPRPRPWLLPRP: the “shrunken log2 fold change” value is 0.0409. Regarding RRIRKRPPRLPRPRPRPVQGPRP, the “shrunken log2 fold change” value is -0.0824. Under RRIRCRPPRLPRPRPRPFIIPRP stands -0.577; under RRIRGRPPRLPRPRPRPQGAPRP, 0.807; under RRIRSRPPRLPRPRPRPQCAPRP, 0.233. Then RRIRNRPPRLPRPRPRPPDMPRP, with 0.0955; and RRIRIRPPRLPRPRPRPKSGPRP, with -0.128; and RRIRFRPPRLPRPRPRPEHSPRP, with -0.00202. As to RRIRWRPPRLPRPRPRPRNYPRP, the “shrunken log2 fold change” value is -0.169. For RRIRARPPRLPRPRPRPVVDPRP, the “shrunken log2 fold change” value was 0.399. Then RRIRKRPPRLPRPRPRPIEGPRP, with -0.00926; and RRIRWRPPRLPRPRPRPMTTPRP, with 0.1; and RRIRKRPPRLPRPRPRPQYFPRP, with -0.0337. For the sequence RRIRYRPPRLPRPRPRPPDMPRP, the “shrunken log2 fold change” value was -0.625. Then RRIRHRPPRLPRPRPRPCRQPRP, with -0.035; and RRIRRRPPRLPRPRPRPFEAPRP, with 1.04; and RRIRKRPPRLPRPRPRPVQAPRP, with 0.741.

As to RRIRHRPPRLPRPRPRPNFVPRP, the “shrunken log2 fold change” value is -0.0788.

With RRIRMRPPRLPRPRPRPMTRPRP, the “shrunken log2 fold change” value is 0.118. Under RRIRFRPPRLPRPRPRPMVQPRP stands -0.106; under RRIRARPPRLPRPRPRPPVMPRP, 0.395. As to RRIRSRPPRLPRPRPRPGSIPRP, the “shrunken log2 fold change” value was -0.0732. As to RRIRQRPPRLPRPRPRPFMDPRP, the “shrunken log2 fold change” value was determined as 0.0499. Under RRIRIRPPRLPRPRPRPRIYPRP stands 0.00994; under RRIRMRPPRLPRPRPRPGPGPRP, 2.09; under RRIRQRPPRLPRPRPRPRKHPRP, 0.165. Under RRIRGRPPRLPRPRPRPFDPPRP stands 0.14; under RRIRTRPPRLPRPRPRPHEPPRP, -0.197. On to RRIRKRPPRLPRPRPRPGLAPRP, for which the “shrunken log2 fold change” value was 0.977. Then RRIRTRPPRLPRPRPRPDFLPRP, with -0.169; and RRIRVRPPRLPRPRPRPFWGPRP, with -0.0605. Take RRIRVRPPRLPRPRPRPWIIPRP: the “shrunken log2 fold change” value is -0.652.

In the case of RRIRYRPPRLPRPRPRPPVGPRP, the “shrunken log2 fold change” value worked out at 0.0196. Consider RRIRGRPPRLPRPRPRPKQKPRP, for which the “shrunken log2 fold change” value is -0.0523. RRIRRRPPRLPRPRPRPMKYPRP: the “shrunken log2 fold change” value turned out to be 0.00758. Under RRIRLRPPRLPRPRPRPDSNPRP stands -0.0277; under RRIRERPPRLPRPRPRPFPLPRP, -0.134; under RRIRHRPPRLPRPRPRPHNSPRP, -0.692. Then RRIRKRPPRLPRPRPRPMCDPRP, with -0.0708; and RRIRQRPPRLPRPRPRPLGRPRP, with -0.00354.

On to RRIRYRPPRLPRPRPRPKATPRP, for which the “shrunken log2 fold change” value is -0.00674. Consider RRIRDRPPRLPRPRPRPSYFPRP, for which the “shrunken log2 fold change” value was -0.255. For the sequence RRIRIRPPRLPRPRPRPSMQPRP, the “shrunken log2 fold change” value is -0.221. Under RRIRERPPRLPRPRPRPFWPPRP stands 0.0458; under RRIRCRPPRLPRPRPRPKALPRP, 0.0255; under RRIRWRPPRLPRPRPRPMMSPRP, 0.19.
